# The RNAGym collection of RNA variant scans (doi:10.7554/elife.80360)
# B1: HDV Ribozyme (parent)
# chain: GGCCGGCAUGGUCCCAGCCUCCUCGCUGGCGCCGGCUGGGCAACAUUCCGAGGGGACCGUCCCCUCGGUAAUGGCGAAUGGGACCCA
# Variants of: B1
# Experiment: self-cleavage, relative activity (ratio to wild type); higher = more cleavage; co-transcriptional
row,Variant,self-cleavage
1,GGCCGGCAUGGUCCCAGCCUCCUCGCUGGCGCCGGCUGGGCAACAUUCCGAGGGGACCGUCCCCUCGGUACGGGCGAAUGGGACCCA [A71C U72G],0.465
2,GGCCGGCAUGGUCCCAGCCUCCUCGCUGGCGCCGGCUGGGCAACAUUCCGAGGGGACCGUCCCCUCGGUACCGGCGAAUGGGACCCA [A71C U72C],0.185
3,GGCCGGCAUGGUCCCAGCCUCCUCGCUGGCGCCGGCUGGGCAACAUUCCGAGGGGACCGUCCCCUCGGUACAGGCGAAUGGGACCCA [A71C U72A],0.332
4,GGCCGGCAUGGUCCCAGCCUCCUCGCUGGCGCCGGCUGGGCAACAUUCCGAGGGGACCGUCCCCUCGGUUAUGGCGAAUGGGACCCC [A70U A87C],0.98
5,GGCCGGCAUGGUCCCAGCCUCCUCGCUGGCGCCGGCUGGGCAACAUUCCGAGGGGACCGUCCCCUCGGUUUUGGCGAAUGGGACCCA [A70U A71U],0.98
6,GGCCGGCAUGGUCCCAGCCUCCUCGCUGGCGCCGGCUGGGCAACAUUCCGAGGGGACCGUCCCCUCGGUUGUGGCGAAUGGGACCCA [A70U A71G],1.09
7,GGCCGGCAUGGUCCCAGCCUCCUCGCUGGCGCCGGCUGGGCAACAUUCCGAGGGGACCGUCCCCUCGGUAUUGGCGAAUGAGACCCA [A71U G81A],0.277
8,GGCCGGCAUGGUCCCAGCCUCCUCGCUGGCGCCGGCUGGGCAACAUUCCGAGGGGACCGUCCCCUCGGUGAUGGCGAAUGGGACCGA [A70G C86G],1.03
9,GGCCGGCAUGGUCCCAGCCUCCUCGCUGGCGCCGGCUGGGCAACAUUCCGAGGGGACCGUCCCCUCGGUGAUGGCGAAUGGUACCCA [A70G G82U],0.415
10,GGCCGGCAUGGUCCCAGCCUCCUCGCUGGCGCCGGCUGGGCAACAUUCCGAGGGGACCGUCCCCUCGGUACUGGCUAAUGGGACCCA [A71C G76U],0.91
11,GGCCGGCAUGGUCCCAGCCUCCUCGCUGGCGCCGGCUGGGCAACAUUCCGAGGGGACCGUCCCCUCGGUGAUGGCGAAUUGGACCCA [A70G G80U],0.177
12,GGCCGGCAUGGUCCCAGCCUCCUCGCUGGCGCCGGCUGGGCAACAUUCCGAGGGGACCGUCCCCUCGGUGAUGGCGAAUAGGACCCA [A70G G80A],0.271
13,GGCCGGCAUGGUCCCAGCCUCCUCGCUGGCGCCGGCUGGGCAACAUUCCGAGGGGACCGUCCCCUCGGUAGUGGCGCAUGGGACCCA [A71G A77C],0.45
14,GGCCGGCAUGGUCCCAGCCUCCUCGCUGGCGCCGGCUGGGCAACAUUCCGAGGGGACCGUCCCCUCGGUAUUGGCGACUGGGACCCA [A71U A78C],0.188
15,GGCCGGCAUGGUCCCAGCCUCCUCGCUGGCGCCGGCUGGGCAACAUUCCGAGGGGACCGUCCCCUCGGUAUUGGCGAGUGGGACCCA [A71U A78G],0.59
16,GGCCGGCAUGGUCCCAGCCUCCUCGCUGGCGCCGGCUGGGCAACAUUCCGAGGGGACCGUCCCCUCGGUACUGGCGAACGGGACCCA [A71C U79C],0.269

row,Variant,self-cleavage
1,GGCCGGCAUGGUCCCAGCCUCCUCGCUGGCGCCGGCUGGGCAACAUUCCGAGGGGACCGUCCCCUCGGUGAAGGCGAAUGGGACCCA [A70G U72A],0.594
2,GGCCGGCAUGGUCCCAGCCUCCUCGCUGGCGCCGGCUGGGCAACAUUCCGAGGGGACCGUCCCCUCGGUAGUGGCGAAUGGGCCCCA [A71G A83C],0.415
3,GGCCGGCAUGGUCCCAGCCUCCUCGCUGGCGCCGGCUGGGCAACAUUCCGAGGGGACCGUCCCCUCGGUAUUGGCGAAUGGGACGCA [A71U C85G],0.587
4,GGCCGGCAUGGUCCCAGCCUCCUCGCUGGCGCCGGCUGGGCAACAUUCCGAGGGGACCGUCCCCUCGGUACUAGCGAAUGGGACCCA [A71C G73A],0.45
5,GGCCGGCAUGGUCCCAGCCUCCUCGCUGGCGCCGGCUGGGCAACAUUCCGAGGGGACCGUCCCCUCGGUAUUGGCGAAUGGGACCCG [A71U A87G],0.831
6,GGCCGGCAUGGUCCCAGCCUCCUCGCUGGCGCCGGCUGGGCAACAUUCCGAGGGGACCGUCCCCUCGGUAUUGGCGAAUGGGACCCU [A71U A87U],0.897
7,GGCCGGCAUGGUCCCAGCCUCCUCGCUGGCGCCGGCUGGGCAACAUUCCGAGGGGACCGUCCCCUCGGUUAUCGCGAAUGGGACCCA [A70U G73C],0.332
8,GGCCGGCAUGGUCCCAGCCUCCUCGCUGGCGCCGGCUGGGCAACAUUCCGAGGGGACCGUCCCCUCGGUGCUGGCGAAUGGGACCCA [A70G A71C],0.712
9,GGCCGGCAUGGUCCCAGCCUCCUCGCUGGCGCCGGCUGGGCAACAUUCCGAGGGGACCGUCCCCUCGGUGGUGGCGAAUGGGACCCA [A70G A71G],0.918
10,GGCCGGCAUGGUCCCAGCCUCCUCGCUGGCGCCGGCUGGGCAACAUUCCGAGGGGACCGUCCCCUCGGUAUUCGCGAAUGGGACCCA [A71U G73C],0.54
11,GGCCGGCAUGGUCCCAGCCUCCUCGCUGGCGCCGGCUGGGCAACAUUCCGAGGGGACCGUCCCCUCGGUAGUGGCGAAUAGGACCCA [A71G G80A],0.288
12,GGCCGGCAUGGUCCCAGCCUCCUCGCUGGCGCCGGCUGGGCAACAUUCCGAGGGGACCGUCCCCUCGGUUAUGGCGAAUGGGGCCCA [A70U A83G],0.902
13,GGCCGGCAUGGUCCCAGCCUCCUCGCUGGCGCCGGCUGGGCAACAUUCCGAGGGGACCGUCCCCUCGGUACUGGCGAAUGGGACACA [A71C C85A],0.578
14,GGCCGGCAUGGUCCCAGCCUCCUCGCUGGCGCCGGCUGGGCAACAUUCCGAGGGGACCGUCCCCUCGGUAUUGGCGGAUGGGACCCA [A71U A77G],0.508
15,GGCCGGCAUGGUCCCAGCCUCCUCGCUGGCGCCGGCUGGGCAACAUUCCGAGGGGACCGUCCCCUCGGUAUUGGCGUAUGGGACCCA [A71U A77U],0.415
16,GGCCGGCAUGGUCCCAGCCUCCUCGCUGGCGCCGGCUGGGCAACAUUCCGAGGGGACCGUCCCCUCGGUGAUGGCGGAUGGGACCCA [A70G A77G],0.831
